Experimental data from article PMC10900206.

Target: Fhb7
Assay: crystal structure

Fhb7 (enzyme) showed a stoichiometry N of 2.
